The values that follow come from US6440702.

Assay [1] concerns the target T1, rat CNTF receptor on rat superior cervical ganglia (SCG) neurons (rat, UniProt Q08406 23-342).
T1 construct: whole, on cells; also called rat receptor; SCGs
T1 sequence (looked up): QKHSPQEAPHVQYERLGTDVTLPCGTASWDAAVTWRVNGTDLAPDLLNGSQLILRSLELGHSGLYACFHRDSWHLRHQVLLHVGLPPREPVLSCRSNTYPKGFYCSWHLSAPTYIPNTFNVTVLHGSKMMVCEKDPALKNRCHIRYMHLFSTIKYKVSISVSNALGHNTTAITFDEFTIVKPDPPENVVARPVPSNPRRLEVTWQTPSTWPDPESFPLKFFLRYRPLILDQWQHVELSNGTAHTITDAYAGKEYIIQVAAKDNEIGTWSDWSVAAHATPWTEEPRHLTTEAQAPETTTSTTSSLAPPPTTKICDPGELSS
Kind of assay: displacement of 125I-rat CNTF from rat SCG neuron monolayers. For orientation: Loss of bound radioactivity is the signal in a displacement assay; it reports binding, not function.

In assay [2] the target is T2, human CNTF receptor alpha component on MG87/CNTFR fibroblasts (human, UniProt P26992 23-342).
T2 construct: whole, on cells; Mouse fibroblast line transfected with the human CNTFalpha receptor gene; also called CNTFRalpha; MG87/huCNTFR
T2 sequence (looked up): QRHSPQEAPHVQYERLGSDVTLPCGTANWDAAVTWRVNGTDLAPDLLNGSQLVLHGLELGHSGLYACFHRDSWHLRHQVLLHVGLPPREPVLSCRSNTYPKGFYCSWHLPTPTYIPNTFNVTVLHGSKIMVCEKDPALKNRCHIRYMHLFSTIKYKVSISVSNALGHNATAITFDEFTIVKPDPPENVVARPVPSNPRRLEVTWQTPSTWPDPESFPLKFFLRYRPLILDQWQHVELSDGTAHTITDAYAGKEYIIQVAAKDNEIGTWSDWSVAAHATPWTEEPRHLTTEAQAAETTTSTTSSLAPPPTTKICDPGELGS
The assay is described as follows: displacement of 125I-rat CNTF from MG87/CNTFR cells (human CNTF receptor). As for the experimental part:
MG87/CNTFR is a fibroblast cell line transfected with the human CNTFα receptor gene (Squinto, et al., 1990, Neuron 5:757–766; Davis et al., 1991, Science 253:59–63). Binding Assays Binding was performed directly on cell monolayers. Cells in culture wells were washed once with assay buffer consisting of phosphate buffered saline (PBS; pH 7.4), 0.1 mM bacitracin, 1 mM PMSF, 1 µg/ml leupeptin, and 1 mg/ml BSA. […] Non-specific binding was determined in the presence of 1,000-fold excess of unlabelled CNTF. Specific binding towards MG87/CNTFR was 80–90%. Data were analyzed using the […] program (ISI, Philadelphia, Pa.).

B1: recombinant human CNTF (ciliary neurotrophic factor) (ligand)
chain: AFTEHSPLTPHRRDLCSRSIWLARKIRSDLTALTESYVKHQGLNKNINLDSADGMPVASTDQWSELTEAERLQENLQAYRTFHVLLARLLEDQQVHFTPTEGDFHQAIHTLLLQVAAFAYQIEELMILLEYKIPRNEADGMPINVGDGGLFEKKLWGLKVLQELSQWTVRSIHDLRFISSHQTGIPARGSHYIANNKKM
notes: Position numbers (C17, Q63) count the methionine as 1; also called rHCNTF; hCNTF
In general, IC50 refers to the midpoint of a concentration-inhibition curve. As for B1, in assay [1], the IC50 stood at 25 nM and the “fold less potent than unlabelled rat CNTF in displacing 125I-rat CNTF” value came out at 90 fold. Also, in assay [2], the IC50 was determined as 30 nM and the “fold less potent than rat CNTF” value came out at 12 fold.

B2: recombinant rat CNTF (ciliary neurotrophic factor) (ligand)
chain: AFAEQTPLTLHRRDLCSRSIWLARKIRSDLTALMESYVKHQGLNKNINLDSVDGVPVASTDRWSEMTEAERLQENLQAYRTFQGMLTKLLEDQRVHFTPTEGDFHQAIHTLMLQVDAFAYQLEELMVLLEQKIPENEADGMPATVGDGGLFEKKLWGLKVLQELSQWTVRSIHDLRVISSHQMGISALESHYGAKDKQM
notes: also called unlabelled rat CNTF
In the case of B2, the figures for the half-maximal inhibitory concentration (IC50) in assay [1] and in assay [2] were 0.28 nM and 2.8 nM, respectively.
